This assay has as its target Cross-linked succinyl Con A (resuccinylated) (Canavalia ensiformis (jack bean)). Description: radioligand binding.

With “Dolichos biflorus lectin (natural protein)”, the glycoprotein specifically bound came out at 96 ng/plate.

The values above are taken from article PMC2111714.
